Laboratory results published in patent publication US20210277140A1.

Biological target: CD47 on Raji B cells (human) (UniProt Q08722)
Assay: cell-based or functional assay

B1: anti human CD47 (mouse antibody), clone B6H12 (antibody, from another filing, IgG1, V domains shown)
VH: EVQLVESGGDLVKPGGSLKLSCAASGFTFSGYGMSWVRQTPDKRLEWVATITSGGTYTYYPDSVKGRFTISRDNAKNTLYLQIDSLKSEDTAIYFCARSLAGNAMDYWGQGTSVTVSS
VL: DIVMTQSPATLSVTPGDRVSLSCRASQTISDYLHWYQQKSHESPRLLIKFASQSISGIPSRFSGSGSGSDFTLSINSVEPEDVGVYYCQNGHGFPRTFGGGTKLEIK
  whole cell eating of Raji B cells by CAR-P^FcRγ macrophages, antibody at 20 µg/ml: 2.5 fold
